20 sequences from the DeepSol protein solubility set can be followed below.

A short description of this series: soluble on expression in E. coli; label from the status in PepcDB or PDB records.
On to “MRGLKTFSILGLIVALLLVAACGNTDNSSKKESSTKDTISVKDENGTVKVPKDAKRIVVLEYSFADALAALDVKPVGIADDGKKKRIIKPVREKIGDYTSVGTRKQPNLEEISKLKPDLIIADSSRHKGINKELNKIAPTLSLKSFDGDYKQNINSFKTIAKALNKEKEGEKRLAEHDKLINKYKDEIKFDRNQKVLPAVVAKAGLLAHPNYSYVGQFLNELGFKNALSDDVTKGLSKYLKGPYLQLDTEHLADLNPERMIIMTDHAKKDSAEFKKLQEDATWKKLNAVKNNRVDIVDRDVWARSRGLISSEEMAKELVELSKKEQK”, for which the “soluble on expression in E. coli” value is “not soluble”.

As for “MRGLLVATWIFVSVAASATPTTTTKSPPPTTTTLSPQILKAKLPPVVKNATWECGTDEFTKSISEGEIQAKCPKLRDHINSCCLQHDGCYEAQSGQKFCDDTFCSCLERRSRSSKSCHDESAPLFCDLVRTFGDGAYEASGPNASTTEESPAEKDDYDYESHVAGLNATPSSST”, the “soluble on expression in E. coli” value is “not soluble”. Turning to “MRGMLPLFEPKGRVLLVDGHHLAYRTFHALKGLTTSRGEPVQAVYGFAKSLLKALKEDGDAVIVVFDAKAPSFRHEAYGGYKAGRAPTPEDFPRQLALIKELVDLLGLARLEVPGYEADDVLASLAKKAEKEGYEVRILTADKDLYQLLSDRIHVLHPEGYLITPAWLWEKYGLRPDQWADYRALTGDESDNLPGVKGIGEKTARKLLEEWGSLEALLKNLDRLKPAIREKILAHMDDLKLSWDLAKVRTDLPLEVDFAKRREPDRERLRAFLERLEFGSLLHEFGLLESPKALEEAPWPPPEGAFVGFVLSRKEPMWADLLALAAARGGRVHRAPEPYKALRDLKEARGLLAKDLSVLALREGLGLPPGDDPMLLAYLLDPSNTTPEGVARRYGGEWTEEAGERAALSERLFANLWGRLEGEERLLWLYREVERPLSAVLAHMEATGVRLDVAYLRALSLEVAEEIARLEAEVFRLAGHPFNLNSRDQLERVLFDELGLPAIGKTEKTGKRSTSAAVLEALREAHPIVEKILQYRELTKLKSTYIDPLPDLIHPRTGRLHTRFNQTATATGRLCCCDPNLQNIPVRTPLGQRIRRGFIAEEGWLLVALDYSQIELRVLAHLSGDENLIRVFQEGRDIHTETASWMFGVPREAVDPLMRRAAKTINFGVLYGMSAHRLSQELAIPYEEAQAFIERYFQSFPKVRAWIEKTLEEGRRRGYVETLFGRRRYVPDLEARVKSVREAAERMAFNMPVQGTAADLMKLAMVKLFPRLEEMGARMLLQVHDELVLEAPKERAEAVARLAKEVMEGVYPLAVPLEVEVGIGEDWLSAKE”, the “soluble on expression in E. coli” value was “soluble”.

With “MRGSHHHHHHGAGDRGPEFPEESSPRRTPQSIPYQDLPHLVNADGQYLFCRYWKPTGTPKALIFVSHGAGEHSGRYEELARMLMGLDLLVFAHDHVGHGQSEGERMVVSDFHVFVRDVLQHVDSMQKDYPGLPVFLLGHSMGGAIAILTAAERPGHFAGMVLISPLVLANPESATTFKVLAAKVLNLVLPNLSLGPIDSSVLSRNKTEVDIYNSDPLICRAGLKVCFGIQLLNAVSRVERALPKLTVPFLLLQGSADRLCDSKGAYLLMELAKSQDKTLKIYEGAYHVLHKELPEVTNSVFHEINMWVSQRTATAGTASPPLEVDLQGDHGLSAWSHPQFEK”, the “soluble on expression in E. coli” value was “soluble”. Regarding “MRGSHHHHHHGSDPAPDAVAQQWAIFRAKYLRPSGRVVDTGNGGESHSEGQGYGMLFAASAGDLASFQSMWMWARTNLQHTNDKLFSWRFLKGHQPPVPDKNNATDGDLLIALALGRAGKRFQRPDYIQDAMAIYGDVLNLMTMKAGPYVVLMPGAVGFTKKDSVILNLSYYVMPSLLQAFDLTADPRWRQVMEDGIRLVSAGRFGQWRLPPDWLAVNRATGALSIASGWPPRFSYDAIRVPLYFYWAHMLAPNVLADFTRFWNNFGANALPGWVDLTTGARSPYNAPPGYLAVAECTGLDSAGELPTLDHAPDYYSAALTLLVYIARAEETIK”, the “soluble on expression in E. coli” value was “soluble”. To “MRGSHHHHHHGSGSMHQRQTLYQLMDGLNTFYQQSLQQPVATSARQYLEKRGLSHEVIARFAIGFAPPGWDNVLKRFGGNPENRQSLIDAGMLVTNDQGRSYDRFRERVMFPIRDKRGRVIGFGGRVLGNDTPKYLNSPETDIFHKGRQLYGLYEAQQDNAEPNRLLVVEGYMDVVALAQYGINYAVASLGTSTTADHIQLLFRATNNVICCYDGDRAGRDAAWRALETALPYMTDGRQLRFMFLPDGEDPDTLVRKEGKEAFEARMEQAMPLSAFLFNSLMPQVDLSTPDGRARLSTLALPLISQVPGETLRIYLRQELGNKLGILDDSQLERLMPK” belongs “soluble”; to “MRGSHHHHHHGSRSSKNVIKEFMRFKVRMEGTVNGHEFEIEGEGEGRPYEGHNTVKLKVTKGGPLPFAWDILSPQFQYGSKVYVKHPADIPDYKKLSFPEGFKWERVMNFEDGGVVTVTQDSSLQDGCFIYKVKFIGVNFPSDGPVMQKKTMGWEASTERLYPRDGVLKGEIHKALKLKDGGHYLVEFKSIYMAKKPVQLPGYYYVDSKLDITSHNEDYTIVEQYERTEGRHHLFL”, “soluble”; to “MRGSHHHHHHKHGQFTLRDMYEQFQNIMKMGPFSQILGMIPGFGTDFMSKGNEQESMARLKKLMTIMDSMNDQELDSTDGAKVFSKQPGRIQRVARGSGVSTRDVQELLTQYTKFAQMVKKMGGIKGLF”, “soluble”.

For the sequence “MRGSHHHHHHTDPALRAENIMNNPVIGVVMCRNRLKGHATQTLQEKYLNAIIHAGGLPIALPHALAEPSLLEQLLPKLDGIYLPGSPSNVQPHLYGENGDEPDADPGRDLLSMAIINAALERRIPIFAICRGLQELVVATGGSLHRKLCEQPELLEHREDPELPVEQQYAPSHEVQVEEGGLLSALLPECSNFWVNSLHGQGAKVVSPRLRVEARSPDGLVEAVSVINHPFALGVQWHPEWNSSEYALSRILFEGFITACQHHIAEKQRLGLCGR”, the “soluble on expression in E. coli” value was “soluble”. For the sequence “MRGSHHHHHHTDPALRAMATLLQLHFAFNGPFGDAMAEQLKPLAESINQEPGFLWKVWTESEKNHEAGGIYLFTDEKSALAYLEKHTARLKNLGVEEVVAKVFDVNEPLSQINQAKLAGLCGR”, the “soluble on expression in E. coli” value is on record as “soluble”. As for “MRGSHHHHHHTDPALRANITPFPTLSPATIDAINVIGQWLAQDDFSGEVPYQADCVILAGNAVMPTIDAACKIARDQQIPLLISGGIGHSTTFLYSAIAQHPHYNTIRTTGRAEATILADIAHQFWHIPHEKIWIEDQSTNCGENARFSIALLNQAVERVHTAIVVQDPTMQRRTMATFRRMTGDNPDAPRWLSYPGFVPQLGNNADSVIFINQLQGLWPVERYLSLLTGELPRLRDDSDGYGPRGRDFIVHVDFPAEVIHAWQTLKHDAVLIEAMESRSLRGLCGR”, the entry is “soluble”; as for “MRGSHHHHHHTDPALRAQDAAPRLTFTLRDEERLMMKIGVFVPIGNNGWLISTHAPQYMPTFELNKAIVQKAEHYHFDFALSMIKLRGFGGKTEFWDHNLESFTLMAGLAAVTSRIQIYATAATLTLPPAIVARMAATIDSISGGRFGVNLVTGWQKPEYEQMGIWPGDDYFSRRYDYLTEYVQVLRDLWGTGKSDFKGDFFTMNDCRVSPQPSVPMKVICAGQSDAGMAFSARYADFNFCFGKGVNTPTAFAPTAARMKQAAEQTGRDVGSYVLFMVIADETDDAARAKWEHYKAGADEEALSWLTEQSQKDTRSGTDTNVRQMADPTSAVNINMGTLVGSYASVARMLDEVASVPGAEGVLLTFDDFLSGIETFGERIQPLMQCRAHLPALTQEVAGLCGR”, “soluble”; as for “MRIEVTIAKTSPLPAGAIDALAGELSRRIQYAFPDNEGHVSVRYAAANNLSVIGATKEDKQRISEILQETWESADDWFVSE”, “soluble”.

With “MRILNVSLLVLASSLVAFVECGRDFYKILGVAKNANANQIKKAYRKLAKELHPDRNQDDEMANEKFQDLSSAYEVLSDKEKRAMYDRHGEEGVAKMGGGGGGGHDPFSSFFGDFFGGGGGHGGEEGTPKGADVTIDLFVTLEEVYNGHFVEIKRKKAVYKQTSGTRQCNCRHEMRTEQMGQGRFQMFQVKVCDECPNVKLVQENKVLEVEVEVGADNGHQQIFHGEGEPHIEGDPGDLKFKIRIQKHPR”, the “soluble on expression in E. coli” value is recorded as “not soluble”. To “MRIMASHDTPVSPAGILIDLDGTVFRGNELIEGAREAIKTLRRMGKKIVFLSNRGNISRAMCRKKLLGAGIETDVNDIVLSSSVTAAFLKKHYRFSKVWVLGEQGLVDELRLAGVQNASEPKEADWLVISLHETLTYDDLNQAFQAAAGGARIIATNKDRSFPNEDGNAIDVAGMIGAIETSAQAKTELVVGKPSWLMAEAACTAMGLSAHECMIIGDSIESDIAMGKLYGMKSALVLTGSAKQGEQRLYTPDYVLDSIKDVTKLAEEGILILEHHHHHH” belongs “not soluble”; to “MRISGVTLFRVSSQLRNVVNGQWTTTHYTVKDRSTDPRWKDVDLARESDVYDVVIVGGGPSGLSAAIRLRQLAEKAQKELRVCVVEKASVIGGHTLSGAVIETRALDELIPNWKELGAPVYQQVTSESIAILTESGRIPVPVLPGVPLANHGNYIVRLGKVVQWLGEQAEAAGVEVWPEIAASEVLYNEDGSVKGIATSDVGIGKDGAPKDGFARGMEFHAKCTIFAEGCRGHLSKQVLDKFDLRTHAMTYGIGLKELWEIDPAKHRPGYVEHTMGWPLNVDQYGGSFLYHIEDQGQPLVSVGFVVALDYANPNLNPYKEFQKYKTHPSISKQLEGGKRIGYGARALNEGGFQSIPKLHFPGGCLVGCSAGFLNVAKLKGTHNAMKSGMVAAESIFEDIQQKGEDVQTIDPATYDKNIRDTYVVKELKATRNIRPSFNTSLGYIGGLIYSGIFYVFGRGIEPWTLGHGKKDNEKLIPVKDAKEIDYPKPDGKLTFDLLTSVSLTGTNHTEDQPAHLTLKNDQVPLDVNLAVYGGPEARFCPAGVYEFVPSEADESKKRLQINAQNCIHCKTCDIKDPQQNINWVTPEGGGGPKYEGM”, “not soluble”. As for “MRISTLQGQYQCIIIDPPWFYRLRSKDKTHRNRIPYQPMRTPEILALPIPDLCDAGGCVLWLWFTNNHMIEAAQCLQRWGFDLKTILTWGKVTKDGTKTHLGVGHWLRNSTEHCALAVRGNVKAFAGQTSTTGGTPTLTNQSTILHSPRREHSRKPPEFFELVEKLCPDMTKLEIFARESRDGWDCWGDQADLFDASDEEILVKAEKVLLLEHHHHHH”, the entry is “not soluble”; as for “MRKAHIMGIEGVGMSALARLLMAEGVAVTGCDLAPGPRARRLGVPVHHGHDPGHLADEDTLVVPTPVPPDHPEVVEARKRGLRVLRRMELLAHFLAQRPSAGVTGTHGKTTTTGMLAAILLEAGLDPWVFLGGELALLPGNARPGRGPRVAEVDESDPLFREVRVSVAVATNLEADHVAPRGERAPNYHESLEALKEAMRGFLAGAKTVVVPAMDPGLLALTEGLPRRLFGPGGEVWAEAVDLSPSGASFRLVHREGPLGEVHLRVPGRHNVHNALAAALAALALGASPEAISRGLSRFPGVGRRFERVGEVGGAWVVDDYAHHPTEVQATLEAALLSGRRVRVFFQPHRLLRTQELWEAFAQALKGAHEVVVLPVYTAGERGRESPEALSDRIAKRLEDLGRPARRMDKEEALAYARATARPEDLLLFMGAGDVTLLARRLVHEG”, “soluble”; as for “MRKITSVSVGEQLDSFITRMVQSGRYGSASEVMRSALRLLEQQESRDEAVRNAVIEGLESGESSMTLRDIAAERKQKHRV”, “soluble”. To “MRKKLKAVLFDMDGVLFNSMPYHSEAWHQVMKTHGLDLSREEAYMHEGRTGASTINIVFQRELGKEATQEEIESIYHEKSILFNSYPEAERMPGAWELLQKVKSEGLTPMVVTGSGQLSLLERLEHNFPGMFHKELMVTAFDVKYGKPNPEPYLMALKKGGLKADEAVVIENAPLGVEAGHKAGIFTIAVNTGPLDGQVLLDAGADLLFPSMQTLCDSWDTIML” belongs “not soluble”.
